Results on two molecules are retold here after PMC7321842 (Nature, 2020).

What is called stoichiometry N is the number of molecules, sites or subunits per partner or assembly.

One series deals with T1, full-length, human CHMP7 (human, UniProt Q8WUX9 1-453).
T1 sequence (looked up): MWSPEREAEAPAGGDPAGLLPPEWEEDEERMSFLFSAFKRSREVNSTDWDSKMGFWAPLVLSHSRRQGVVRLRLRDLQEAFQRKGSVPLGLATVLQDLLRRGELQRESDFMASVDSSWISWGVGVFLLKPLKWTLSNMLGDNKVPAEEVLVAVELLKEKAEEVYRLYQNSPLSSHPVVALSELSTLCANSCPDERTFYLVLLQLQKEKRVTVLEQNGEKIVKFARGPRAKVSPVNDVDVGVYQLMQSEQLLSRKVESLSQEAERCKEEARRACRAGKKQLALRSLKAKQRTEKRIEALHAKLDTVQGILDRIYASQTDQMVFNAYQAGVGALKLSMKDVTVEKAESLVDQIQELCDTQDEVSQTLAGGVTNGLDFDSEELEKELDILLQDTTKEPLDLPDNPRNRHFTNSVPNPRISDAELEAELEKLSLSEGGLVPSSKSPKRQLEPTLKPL
The series can be described thus: co-sedimentation.

A further series addresses T2, CHMP7_(R270E+I312E) (human, UniProt Q8WUX9 1-453, R270E | I312E).
T2 sequence (looked up): T1 sequence (looked up) with R270E, I312E
The series can be described thus: co-sedimentation.

The next series addresses T3, CHMP7_(R270E+V339D) (human, UniProt Q8WUX9 1-453, R270E | V339D).
T3 sequence (looked up): T1 sequence (looked up) with R270E, V339D
As to the kind of experiment: co-sedimentation.

The target of the next series is T4, CHMP7_(I312E+V339D) (human, UniProt Q8WUX9 1-453, I312E | V339D).
T4 sequence (looked up): T1 sequence (looked up) with I312E, V339D
As to the kind of experiment: co-sedimentation.

Series [1] deals with the molecule itself. The series can be described thus: negative stain electron microscopy of polymers.

Substitutions are numbered along the chain they refer to.

B1: WH domain of LEM2 (LEM2WH; AA:395–503) (domain or fragment, human, UniProt Q8NC56 395-503, looked up)
chain: ILLKYRWRKLEEEEQAMYEMVKKIIDVVQDHYVDWEQDMERYPYVGILHVRDSLIPPQSRRRMKRVWDRAVEFLASNESRIQTESHRVAGEDMLVWRWTKPSSFSDSER
B1: the “stoichiometry N” value with full-length, human CHMP7 is 1. Moreover, the binding result with CHMP7_(R270E+I312E), in the series with CHMP7_(R270E+V339D) and with CHMP7_(I312E+V339D) was “binds” in each case.

B2: CHMP7_(ESCRT-III) (AA:229–453) (domain or fragment, human, UniProt Q8WUX9 229-453, looked up)
chain: AKVSPVNDVDVGVYQLMQSEQLLSRKVESLSQEAERCKEEARRACRAGKKQLALRSLKAKQRTEKRIEALHAKLDTVQGILDRIYASQTDQMVFNAYQAGVGALKLSMKDVTVEKAESLVDQIQELCDTQDEVSQTLAGGVTNGLDFDSEELEKELDILLQDTTKEPLDLPDNPRNRHFTNSVPNPRISDAELEAELEKLSLSEGGLVPSSKSPKRQLEPTLKPL
B2: the binding result in series [1] is “binds”.
